Assay: yeast display, Sf9 membrane polyspecificity reagent, FACS + sequencing; frameworks hold sequencing errors
Outline: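 In a synthetic yeast display library (Saccharomyces cerevisiae BJ5465), nanobody expression was induced with galactose for 36–48 hours. FACS gates were set low and high (top ~1%) using anti-HA fluorescence for expression and streptavidin fluorescence for binding of the Sf9 membrane reagent. Each polyreactivity label is drawn from the gate of origin.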

Sequence	polyreactivity (PSR sort gate)
QVQLVESGGGLVQAGGSLRLSCAASGRTFYRNAMGWYRQAPGKERELVAAITTSGGRTYYADSVKGRFTISRDNAKNTVYLQMNSLKPEDTAVYYCNAVYYGRTYASGYDYWGQGTQVTVSS	high polyreactivity
QVQLVESGGGLVQAGGSLRLSCAASGRTFYRNAMGWYRQAPGKERELVATINSGGSTHYADSVKGRFTISRDNAKNSVYLQMNSLKPEDTAVYYCAARSPSYRGSLSYYWGHGTQVTVSS	high polyreactivity
QVQLVESGGGLVQAGGSLRLSCAASGRTFYRNAMGWYRQAPGKERELVATITRRGGSTYYADSVKGRFTISRDNAKNTVYLQMISLKPEDTAVYYCAAGSKDLYRPYDYWGQGTQVTVSS	high polyreactivity
QVQLVESGGGLVQAGGSLRLSCAASGRTFYRNAMGWYRQAPGKERELVATITRRGGSTYYADSVKGRFTISRDNAKNTVYLQMNSLKPEDTAVYYCAAGSKDLYRPYDYWGQGTQVTVSS	high polyreactivity
QVQLVESGGGLVQAGGSLRLSCAASGRTFYRNDMVWYRQSPGKERELVARITSGGSTNYADSVKGRFTISRDNAKNTVYLQMNSLKPEDTGVYYCAAVSRYYPYGYWGQGTQVTVSS	high polyreactivity
QVQLVESGGGLVQAGGSLRLSCAASGRTFYRYAMGWYRHAPGKERELVASITRGTSTNYADSVKGRFTISRDNAKNTVYLQMNSLKPEDTAVYYCNRRIFGGQRMYYWGQGTQVTVSS	high polyreactivity
QVQLVESGGGLVQAGGSLRLSCAASGRTFYRYAMGWYRQAPGKEREFVAAISRCGGSTYYADSVKGRFTISRDNAKNTVFLQMNRLKPEDTGVYYCNADTRAGGFYTPYGRDYWGQGSQVTVSS	high polyreactivity
QVQLVESGGGLVQAGGSLRLSCAASGRTFYRYAMGWYRQAPGKEREFVARITTSGGSTYYADSVKGRFTISRDNAKNTVYLEMNSLKPEDTAVYYCAASAPYIYYWGQGTQVTVSS	high polyreactivity
QVQLVESGGGLVQAGGSLRLSCAASGRTFYRYAMGWYRQAPGKEREFVARITTSGGSTYYADSVKGRFTISRDNAKNTVYLQMNSLKPDDTAVYYCNASGVTYAFLRFDYWGQGTQVTVSS	high polyreactivity
QVQLVESGGGLVQAGGSLRLSCAASGRTFYRYAMGWYRQAPGKERELFAAISGSGTSTSYADSVKGRFTISRDNAKNTVYLQLNSLKPDDTAVYYCAATYYVYYYSRYYYWGQGTQVTVSS	high polyreactivity
QVQLVESGGGLVQAGGSLRLSCAASGRTFYRYAMGWYRQAPGKERELVAAISGSGTSTSYADSVKGRFTISRDNAKNTVYLQMNSLKPEDTAVYYCAATYYVYYYSRYYYWGQGTQVTVSS	high polyreactivity
QVQLVESGGGLVQAGGSLRLSCAASGRTFYRYAMGWYRQAPGKERELVASITRDGRTNYADSVKGRFTISRDNAKNTVYLQMNSLKPEDTAVYYCNAKHKITHSSSDYWGQGTQVTVSS	high polyreactivity
QVQLVESGGGLVQAGGSLRLSCAASGRTFYRYAMGWYRQAPGKERELVATISRSGGSTYYADSVKGRFTISRDNAKNTVYLQMNSLKPEDTAVFYCNAEGYPWGFYTYDYWGQGTQVTVSS	low polyreactivity
QVQLVESGGGLVQAGGSLRLSCAASGRTFYRYAMGWYRQAPGKERELVAVITSGSRTKYADSVKGRFTISRDNAKNTVYLQMNSLKPEDTAVYYCNAYGVRYRQAFVRYNYWGQGTQVTVSS	high polyreactivity
QVQLVESGGGLVQAGGSLRLSCAASGRTFYRYAMGWYRQAPGKESELVAAISSSGGSTYYADSVKGRFTISRDNAKNTVYFQMNSLKPEDTAVYDCADQYFLFTTPYRYAPRMGYWGQGTQVTLSS	high polyreactivity
QVQLVESGGGLVQAGGSLRLSCAASGRTFYRYGMGWYRQAPGKEREFVAAITRSGDSTYADSVKGRFTISRDNAKITVYLQMNSLKPEDTAVYYCAKVFLRQYAYRYYYWGQGTQVTVSS	high polyreactivity
QVQLVESGGGLVQAGGSLRLSCAASGRTFYRYVMGWYRQATGKERELDADISRRGGRTYYADSVKGRFTISRDNAKNTVYLQMNSLKPEDTAVYYCAAESKYATSSPRRDYWGQGTQVTVSS	high polyreactivity
QVQLVESGGGLVQAGGSLRLSCAASGRTFYSNAMGWYRQAAGKERELVAAISYNDGSTYYADSVKGRFTITRDNAKNTVYLQMNSLKPEDTAVYACNADVGAWAWYTRYDYWGQGTQVTVSS	low polyreactivity
QVQLVESGGGLVQAGGSLRLSCAASGRTFYSNAMGWYRQAPGKERELVAAIRQSGGSTYYADSVKGRFTISRDNEKNSVYLQMNSLTPEDTAVYYCATGRHDSYKGSLYYYWGQGTQVTVSS	high polyreactivity
QVQLVESGGGLVQAGGSLRLSCAASGRTFYSNAMGWYRQAPGKERELVAAISRSGGTTYYADSVKGRFTISRDNAKNTVYLQMNSLKPEDTAVYYCNTLRYGTTGKYDYWGQGTQVTVSS	high polyreactivity
QVQLVESGGGLVQAGGSLRLSCAASGRTFYSYAMGWYRQAPGKERELVAAISASGGRTYYADSVKGRFTISRDNAKNTVYLQMNSLKPEDTAVYYCAAYPWYRMWGQGTQVTVSS	high polyreactivity
QVQLVESGGGLVQAGGSLRLSCAASGRTFYSYAMGWYRQAPGKERELVAAISRGGNTYYADSVKGRFTISRDNAKNTVSLQMNSLNPEDTAVYYCAVVRVTYYASIYHRGYDYWGQGTQVTVSS	low polyreactivity

Sequence	polyreactivity (PSR sort gate)
QVQLVESGGGLVQAGGSLRLSCAASGRTFYSYAMGWYRQAPGTEREFVAAINWSGTSTYADSVKGRFTISRDNAKNTVYLQMNSLKPEDTAVYYCAKTYRTLVRYWGQPFGYWGQGTQVTVSS	high polyreactivity
QVQLVESGGGLVQAGGSLRLSCAASGRTFYSYTMGWYRPAPGKERELVAAINRGGSTYYADSVKGRFTISRDNAKNTVYLQMNSLKPEDTAVYYCAVGYAHSSNRRYYYKKTHGYWGQGTQVTVSS	low polyreactivity
QVQLVESGGGLVQAGGSLRLSCAASGRTFYSYVMGWYRQAPGKERELVAAISSTGGTYADSVKGRFTISRDNAKNTVYLQMNSLKPEDTAVYYCAARVHFPYPDYAWITVLYDYWGQGTQVTVSS	low polyreactivity
QVQLVESGGGLVQAGGSLRLSCAASGRTFYWNAMGWSIQAPGKERELVASISWSGGRTYYADSVKGRFTISRDNAKNTVYLQMISLKPEDTAVYYCARRYSGTPSTFYYWGQGTLVTVSS	high polyreactivity
QVQLVESGGGLVQAGGSLRLSCAASGRTFYWNAMGWYRQAPGKDRDLVASISWSGGRTYYADSVKGRFTISRDNAKNTVYLQMNSLKPEDTAVYYCARRYSGTPSTFYYWGQGTQVNVSS	high polyreactivity
QVQLVESGGGLVQAGGSLRLSCAASGRTFYYAMGWYRQAPGKERELVAAISKNGGRTYYADSVKGRFTISRDNAKNTVYLQMNSLKPEDTAVYYCAAAFQRPHSYLYYYWGQGTQVTVSS	high polyreactivity
QVQLVESGGGLVQAGGSLRLSCAASGRTFYYAMGWYRQAPVKERYADSVKGRFTISRDNAKNTVYLQMNSLKPEDTAVYYCAAKVPEPPSLDESDYWGQGTQVTVSS	low polyreactivity
QVQLVESGGGLVQAGGSLRLSCAASGRTFYYNAMGWYRQAPGKEREFVAAISYGGTTTYYADSVKGRFTISRDNAKNTVYLQMNSLKPEDTAVYYCAAGYTWRQSWYPFDYWGQGSQVTVSS	high polyreactivity
QVQLVESGGGLVQAGGSLRLSCAASGRTFYYNAMGWYRQAPGKERELVARISTIGGNTFYADSVKGRFTISRDNAKNTVYLQMNSLKPEDTAVYYCATTGGPSWRKYDYWGQGTQVTVSS	high polyreactivity
QVQLVESGGGLVQAGGSLRLSCAASGRTFYYNAMGWYRQAPGKERELVARITSSGGSTYYADSVKGRFTISRDNAKNTVYLQMNSLKPEDTAVYYCAAGRSRYLWFGRDFDYWGQGTQVTVSS	low polyreactivity
QVQLVESGGGLVQAGGSLRLSCAASGRTFYYNTMGRNIPAPGKERELVATISRIGGSTYYADSVKGRFTISRDNAKNTVYLQMNSLKPEDTAVYYCAKGRSLNGRPPVVYWQLFYYWGQGTEVTVSS	high polyreactivity
QVQLVESGGGLVQAGGSLRLSCAASGRTFYYNVMGWYRQAPGKERELVAAISTGVSTNYADSVKGRFTISRDNAKNTVYLQMNSLKPEDTAVYYCNARSYRWYRPVYRYDYWGQGTQVNVSS	high polyreactivity
QVQLVESGGGLVQAGGSLRLSCAASGRTFYYYAMGSYRQAPGKEREFVAAITTRGGSTYYADSVKGRFTISRDNAKNTVYLQMNSLKPEDTAVYYCAARSYYQGGYYYWGQGTQVTVSS	high polyreactivity
QVQLVESGGGLVQAGGSLRLSCAASGRTFYYYAMGWYRPAPGKERELVAAITSRGGSTYYADSVTGRFTISRDNAKNTVYLQMNSLKPEDTAVYYCAAEYWSTYWQSELDYWGQGTQVTVSS	high polyreactivity
QVQLVESGGGLVQAGGSLRLSCAASGRTFYYYAMGWYRQAHGKERELVAAISTNGGSTYYADSVKGRFTISRDNAKNTVYLQMNSLKPEDTAVYYCNTYAKPHRSGGGLGGHYYWGQGTQVTLSS	low polyreactivity
QVQLVESGGGLVQAGGSLRLSCAASGRTFYYYAMGWYRQAPGKEREFVASISYSGARTYYADSVKGRFTISRDNAKNTVYLQMNSLKPEETAVYYCAAGYPLGGDYWGQGTQVTVSS	high polyreactivity
QVQLVESGGGLVQAGGSLRLSCAASGRTFYYYAMGWYRQAPGKERELVAGIDFSSGSTYYADSVKGRFTISRDNAKNTVYLQMNSLKPEDTAVYYCAAKWHVRGRGARYRYDYDYWGQGTQVTVSS	low polyreactivity
QVQLVESGGGLVQAGGSLRLSCAASGRTFYYYAMGWYRQAPGKERELVARIRSGGSTNYADSVKGRFTISRDNAKNTVYLQMNSLKPEDTAVYYCNALGAKGYVKGFDYWGQGTQVTVSS	low polyreactivity
QVQLVESGGGLVQAGGSLRLSCAASGRTFYYYAMGWYRQAPGKERELVATITKSSGSTSYADSVKGRFTISRDNAKNTVYLQMNSLKPEDTAVYYCAKVFRSGGVYRYDYWGQGTQVTVSS	high polyreactivity
QVQLVESGGGLVQAGGSLRLSCAASGRTFYYYAMGWYRQAPGKERELVAVIRFSDGSTYYADSVKGRFTISRDNAKNTVYLQMNSLKPEDTAVYYCAAKGPRRWGSGFDYWGQGTQVTVSS	low polyreactivity
QVQLVESGGGLVQAGGSLRLSCAASGRTFYYYGMGWYRQAPGKERELVASITNGGNTNYADSVKGRFTISRDNAKNTVYLQMNSLKPEDTAVYYCAKDVPYWRPVVRYDYWGQGTQVTVSS	low polyreactivity

From the nanobody polyreactivity screen of Harvey et al. (2022)
